Broadly, the Kd is the equilibrium constant for the complex coming apart.

Test [1] concerns the target recombinant laminin LAMA3_(2928–3150) protein (human) (UniProt Q16787). The experiment in a line: SPR; LAMA3 2928–3150 immobilised by amine coupling on a C1 chip (~1000 RU); GF flown at 20 μL/min in 0.01 M HEPES pH 7.4, 0.15 M NaCl, 0.005% surfactant P20; Langmuir binding kinetics.
The target of test [2] is recombinant human laminin-521 (human) (UniProt O15230). As to the kind of experiment: SPR; laminin-521 immobilised by amine coupling on a C1 chip (~2000 RU); GF flown at 20 μL/min in 0.01 M HEPES pH 7.4, 0.15 M NaCl, 0.005% surfactant P20; Langmuir binding kinetics. (In general: SPR reads the build-up and loss of mass on a sensor chip optically.)
Test [3] deals with laminin peptide LAMA5_(3417–3436) (human) (UniProt O15230).
Test [4] concerns the target laminin peptide LAMA3_(3043–3067) (human) (UniProt Q16787).

Chain of laminin peptide LAMA3_(3043–3067) (human) (Q16787 3043-3067): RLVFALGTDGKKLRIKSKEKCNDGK
Chain of recombinant laminin LAMA3_(2928–3150) protein (human) (Q16787 2928-3150): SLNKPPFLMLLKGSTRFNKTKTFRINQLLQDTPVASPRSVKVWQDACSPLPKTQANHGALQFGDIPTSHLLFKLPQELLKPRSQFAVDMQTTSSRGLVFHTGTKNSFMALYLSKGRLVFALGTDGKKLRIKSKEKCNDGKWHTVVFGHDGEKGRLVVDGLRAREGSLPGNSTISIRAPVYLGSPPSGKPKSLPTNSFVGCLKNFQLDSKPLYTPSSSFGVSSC
Chain of laminin peptide LAMA5_(3417–3436) (human) (O15230 3417-3436): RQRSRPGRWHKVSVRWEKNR

As for “vascular endothelial cell growth factor VEGF-A165 (ligand)”, the Kd in test [1] came out at 1.2 nM; in test [2], 5.8 nM. For the same substance, the cumulative release of VEGF-A165 after 5 days from a fibrin matrix with covalently incorporated α2PI1–8-LAMA5 (3417–3436) (without peptide >85% released after 24 h) in test [3] came out at 31%. For the same substance, in test [4], the cumulative release of VEGF-A165 after 5 days from a fibrin matrix with covalently incorporated α2PI1–8-LAMA3 (3043–3067) (without peptide >85% released after 24 h) came to 25%.
